{"source": "patent EP4467153A1", "about": "“CONSTRAINED PEPTIDE INHIBITORS OF LRRK2-FADD INTERACTIONS” (University of Georgia Research Foundation, Inc., priority 2023, dated 2024)", "key": {"HEK293T cells": {"system": "HEK293T cells", "test": "Cellular uptake of FAM-labeled peptides in HEK293T cells (fluorescence imaging)", "type": "cell-based", "excerpt": "• FIGs. 1A-1D depict the design and structure of constrained peptides targeting the LRRK2-FADD PPI. (FIG. 1A) Structural representation of the region of the LRRK2 ARM domain in which the FADD-binding motif is located, shown with the fragment of the FADD death domain that binds LRRK2. (FIG. 1B) Highlight schematic of the relevant binding domains within LRRK2 and FADD, and the corresponding amino acid sequence that mediates this PPI is highlighted. (FIG. 1C) Schematic representation of the solid phase peptide synthesis, highlighting the placement of the synthetic amino acids for the placement of the peptide staple. (FIG. 1D) Sequences of the five stapled peptides synthesized, with the position of the synthetic residues in each peptide indicated by an asterisk. • FIGs. 2A-2B depict the cellular uptake of stapled vs. native peptides. (FIG. 2A) HEK293T cells were incubated with 5 µM of non-stapled control or constrained FARMS for a period of 24 hr. […] In the eluate, a dose-dependent reduction of FADD was detected with increasing concentrations of FARMS. […] (FIG. 4B) The percentage of transfected neurons with apoptotic nuclear features was determined in a blinded fashion. […] (FIG. 5B) The band intensities in FIG. 5A were quantified using Image J (n=2). […] (FIG. 5C) Phosphorylation of endogenous RablO in HEK293T cells by over-expressed WT or R1441C-LRRK2 was determined by Western blot, as in FIG. 5A. […]"}, "G2019S-LRRK2": {"target": "T1, G2019S-LRRK2 (Homo sapiens, UniProt Q5S007, G2019S)", "T1 construct": "expressed in transfected cells; host or cells: HEK293T", "T1 sequence (Q5S007 whole entry G2019S)": "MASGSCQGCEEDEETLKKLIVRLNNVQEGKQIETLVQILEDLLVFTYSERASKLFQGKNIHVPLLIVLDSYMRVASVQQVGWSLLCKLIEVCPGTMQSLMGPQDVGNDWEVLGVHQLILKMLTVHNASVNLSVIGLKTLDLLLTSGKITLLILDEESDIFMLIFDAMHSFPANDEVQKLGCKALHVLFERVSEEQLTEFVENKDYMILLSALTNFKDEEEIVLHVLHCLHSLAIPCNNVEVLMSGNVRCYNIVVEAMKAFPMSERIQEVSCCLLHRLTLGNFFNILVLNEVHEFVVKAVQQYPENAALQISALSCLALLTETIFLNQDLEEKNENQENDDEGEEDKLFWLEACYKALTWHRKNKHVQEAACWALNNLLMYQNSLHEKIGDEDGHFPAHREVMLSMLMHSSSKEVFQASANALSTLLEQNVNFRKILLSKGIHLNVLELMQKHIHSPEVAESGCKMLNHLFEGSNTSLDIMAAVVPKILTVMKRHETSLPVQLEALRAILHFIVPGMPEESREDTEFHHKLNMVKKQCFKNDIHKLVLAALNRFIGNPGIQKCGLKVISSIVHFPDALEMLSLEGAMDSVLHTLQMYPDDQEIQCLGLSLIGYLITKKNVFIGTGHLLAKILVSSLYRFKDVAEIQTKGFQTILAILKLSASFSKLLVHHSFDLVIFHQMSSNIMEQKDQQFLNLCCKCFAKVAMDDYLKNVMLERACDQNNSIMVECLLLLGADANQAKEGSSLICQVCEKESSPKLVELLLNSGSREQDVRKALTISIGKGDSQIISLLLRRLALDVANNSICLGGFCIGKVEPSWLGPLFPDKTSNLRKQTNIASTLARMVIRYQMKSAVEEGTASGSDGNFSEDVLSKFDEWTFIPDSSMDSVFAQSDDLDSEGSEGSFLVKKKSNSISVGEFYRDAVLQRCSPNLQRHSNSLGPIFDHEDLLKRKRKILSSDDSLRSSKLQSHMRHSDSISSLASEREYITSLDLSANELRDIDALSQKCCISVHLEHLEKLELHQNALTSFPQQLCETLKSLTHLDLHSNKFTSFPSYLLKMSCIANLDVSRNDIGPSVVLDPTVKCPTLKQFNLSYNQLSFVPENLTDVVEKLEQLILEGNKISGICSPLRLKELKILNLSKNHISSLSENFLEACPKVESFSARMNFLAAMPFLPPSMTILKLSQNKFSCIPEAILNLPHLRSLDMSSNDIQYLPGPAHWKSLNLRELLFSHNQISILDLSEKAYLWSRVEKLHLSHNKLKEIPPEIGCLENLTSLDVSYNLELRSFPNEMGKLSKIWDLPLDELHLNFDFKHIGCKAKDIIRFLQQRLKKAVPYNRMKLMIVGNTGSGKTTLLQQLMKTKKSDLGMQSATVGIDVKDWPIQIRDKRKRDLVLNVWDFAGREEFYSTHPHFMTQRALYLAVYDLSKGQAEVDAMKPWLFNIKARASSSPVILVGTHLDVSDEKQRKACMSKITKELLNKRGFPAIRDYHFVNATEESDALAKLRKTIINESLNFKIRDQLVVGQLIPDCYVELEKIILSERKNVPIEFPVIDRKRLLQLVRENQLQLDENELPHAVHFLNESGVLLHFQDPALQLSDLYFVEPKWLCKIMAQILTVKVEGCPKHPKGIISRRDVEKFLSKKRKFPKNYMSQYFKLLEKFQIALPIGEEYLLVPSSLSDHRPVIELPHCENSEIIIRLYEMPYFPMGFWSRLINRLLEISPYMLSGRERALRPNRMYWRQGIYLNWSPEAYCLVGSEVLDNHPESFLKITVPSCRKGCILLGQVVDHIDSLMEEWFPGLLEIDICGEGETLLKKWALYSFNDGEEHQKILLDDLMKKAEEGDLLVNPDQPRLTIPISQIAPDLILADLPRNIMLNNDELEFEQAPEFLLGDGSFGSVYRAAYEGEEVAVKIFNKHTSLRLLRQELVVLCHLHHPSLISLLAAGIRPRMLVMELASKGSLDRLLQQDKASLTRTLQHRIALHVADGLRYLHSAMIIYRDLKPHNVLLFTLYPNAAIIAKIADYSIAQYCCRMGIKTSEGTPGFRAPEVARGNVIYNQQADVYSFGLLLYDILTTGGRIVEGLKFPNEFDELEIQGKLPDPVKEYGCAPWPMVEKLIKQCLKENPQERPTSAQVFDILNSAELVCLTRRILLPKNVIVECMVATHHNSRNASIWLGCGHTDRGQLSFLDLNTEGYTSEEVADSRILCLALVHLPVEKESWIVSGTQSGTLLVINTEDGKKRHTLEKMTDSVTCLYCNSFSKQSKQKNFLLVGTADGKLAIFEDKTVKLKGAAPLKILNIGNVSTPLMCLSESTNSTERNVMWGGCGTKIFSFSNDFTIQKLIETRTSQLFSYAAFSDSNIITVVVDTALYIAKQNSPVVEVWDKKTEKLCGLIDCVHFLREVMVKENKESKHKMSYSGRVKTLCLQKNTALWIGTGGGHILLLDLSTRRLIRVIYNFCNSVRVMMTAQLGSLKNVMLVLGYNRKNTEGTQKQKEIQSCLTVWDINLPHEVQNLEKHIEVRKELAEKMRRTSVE", "test": "LRRK2 kinase function in HEK293T cells co-transfected with G2019S-LRRK2 and Flag-Rab10 (western blot)", "type": "cell-based", "conditions": "G2019S-LRRK2 + Rab10, peptide at indicated concentrations, 24hr", "description": "Since the peptides were designed to block LRRK2 from interacting with FADD, they should not have any effect on the catalytic kinase activity of LRRK2. To determine whether the PPI-disrupting FARMS peptide alters LRRK2 kinase activity in cells, HEK293T cells were co-transfected with WT or G019S-LRRK2 together with Rab10. Cells over-expressing mutant LRRK2 and human WT RablO were treated with FARMS and the cell extracts were probed for multiple indices of LRRK2 kinase activity including phosphorylated Rab10 and pS1292-LRRK2.\nAssessment of LRRK2 kinase function. To determine whether peptides targeting the LRRK2-FADD PPI could also alter kinase function, LRRK2 activity was assessed in a cellular setting, through the phosphorylation of an endogenous substrate (pT73-Rab10), as well as auto-phosphorylation (pS1292-LRRK2). […] Parallel cultures were transfected with only WT or R1441C-LRRK2; and endogenous levels of phosphorylated RablO were assessed. Following 72hr of total expression, the cells were washed in cold PBS and collected. Cell lysis was performed using the following buffer: 50mM Tris HCl, pH 7.5; 1mM EGTA; 0.27 M sucrose; 1% Triton X-100; supplemented with protease and phosphatase inhibitor cocktails, and cell extracts stored at -80°C until use. […] For quantification, the band intensities for phosphorylated Rab 10 or LRRK2 were normalized to total expression of the respective protein."}}, "note": "“Also recorded” adds a separate entry of the source. Positions of bridges follow the written chain, without caps; N, C: chain ends. Non-standard residues stand in square brackets, D forms with d. Primed or numbered codes have the meaning given here. FAM = 5(6)-carboxyfluorescein label; S5 = C=CCCC[C@](C)(N)C(=O)O; PEG3′ = PEG3 spacer", "data": [{"substance": "FARM5: FAM-labeled hydrocarbon-stapled FADD Armadillo domain peptide; mass fits SEQ ID NO. 6 KVADLVQEVQQAXDLQXRSK ({FAM-PEG3′}-KVADLVQEVQQA[S5]DLQ[S5]RSK-NH2; staple 13-17; also: FAM label, optionally 5(6)FAM-PEG3 on N-terminal lysine) [FAM-labeled hydrocarbon-stapled FADD Armadillo domain peptide; 6 …XDLQXRSK]", "values": [{"measurement": "cellular uptake (permeation of cells)", "setting": "HEK293T cells; 5 µM FAM-labeled peptide, 24 hr", "value": "clear diffuse fluorescent signal along with a few visible puncta was observed throughout cells"}, {"measurement": "dose-dependency of uptake of FAM-labeled peptide", "setting": "HEK293T cells; 0.1 or 10 µM, 24hr", "value": "dose-dependent"}, {"measurement": "phosphorylation of over-expressed Rab10 (pT73)", "setting": "G2019S-LRRK2", "value": "unexpected increase"}, {"measurement": "auto-phosphorylation of LRRK2 at Ser1292 (pS1292-LRRK2)", "setting": "G2019S-LRRK2; listed as FARMS", "value": "any loss in phosphorylation of pS1292-LRRK2 or RablO could be detected; also recorded: un-affected"}]}]}
